Measurements taken from patent publication US12227570B2, “Anti-CEACAM6 antibodies and methods of use” (Singapore Health Services PTE LTD, priority 2016, dated 2025).

How the values were obtained:
[1] = system: PC-9 Gefitinib resistant clones (CL75, CL86, CL131) and parental PC-9; assay: Flow cytometry binding on PC-9 and gefitinib resistant PC-9 clones; format: cell-based
Protocol: (§1) Cells were harvested as single cell suspensions using trypsin. 1E5 cells were used per sample, and incubated with 100 μl of mAb culture supernatant for 30 min. Cells were then washed with 1% bovine serum albumin in PBS, and further incubated with 100 μl of goat anti-mouse antibody fluorescein isothiocyanate (FITC)-conjugated (1:500, DAKO, Denmark) for 15 min at 4° C. in the dark. Cells were again washed and resuspended in 200 μL of 1% BSA/PBS for analysis on Guava® easy Cyte 8HT Benchtop Flow Cytometer (Merck Millipore, USA). For interrogation of […] binding, cells were fixed with 4% PFA/PBS (Affymetrix, USA) at room temperature for 10 min, washed in PBS, and permeabilised with 0.1% triton/PBS for 5 min at room temperature, before proceeding with incubation with mAb supernatant/primary antibody. For staining with propidium iodide, PI was added to a final concentration of 5 μg/mL for 5 min just prior to analysis by the flow cytometer.

[2] = system: NSCLC lines, GR HCC827 clones, breast cancer lines, colorectal cancer lines; assay: Flow cytometry binding on other cancer cell lines; format: cell-based
Protocol: as §1

CEACAM6 = molecular target: T1, CEACAM6 (Homo sapiens, UniProt P40199); assay: Binding after siRNA knock down of CEACAM6; format: cell-based; settings: PC-9 cells; Western blot and flow cytometry
T1 construct: 20 μg of PC-9 membrane protein extract was first denatured; endogenous in cells; host or cells: PC-9 cells
T1 sequence (P40199 35-320): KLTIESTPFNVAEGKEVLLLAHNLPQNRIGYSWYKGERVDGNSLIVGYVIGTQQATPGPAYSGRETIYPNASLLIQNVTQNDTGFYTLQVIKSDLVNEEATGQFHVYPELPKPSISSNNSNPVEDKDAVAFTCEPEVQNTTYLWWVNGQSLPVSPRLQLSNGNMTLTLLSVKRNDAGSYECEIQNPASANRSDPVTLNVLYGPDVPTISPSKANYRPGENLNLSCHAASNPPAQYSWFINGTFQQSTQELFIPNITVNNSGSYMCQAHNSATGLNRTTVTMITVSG

cancer cell lines = assay: IHC staining on FFPE cell line array; format: cell-based; settings: gastric, lung, colorectal and pancreatic cancer cell lines
Protocol: (§2) TMA slides containing FFPE tissues were first heated in an oven at 60° C. for 30 min to remove any solvents. The slides were then dewaxed and re-hydrated through sequential immersion in Histoclear (2×), 100% ethanol (2×), 95% ethanol, 70% ethanol, and finally in DI water.
(§3) Heat-induced epitope retrieval was done in a solution containing 10 mM Tris Base, 1 mM EDTA, 0.05% Tween 20 at pH 9.0, and heated at 95° C. for 20 min. The container with the antigen retrieval solution and slides was then removed and allowed to cool to room temperature for an additional 20 min. The slides were then washed in DI water. Endogenous peroxidase activity was then blocked by incubation of the slides with 3% H2O2 in PBS for 30 min at room temperature. The slides were washed in DI water, followed by a blocking step with 10% normal goat serum in PBS for 30 min.
The slides were then incubated with GR6A04 at 5 μg/mL in blocking solution overnight at 4° C. The slides were then washed an incubated with a polymer-based anti-mouse secondary antibody conjugated with HRP (DAKO, USA) for 30 min at room temperature, and developed with the recommended DAB chromogen substrate solution for 2 min, and counterstained with Gill's Hematoxylin solution. […]

NSCLC tissue = assay: IHC staining on NSCLC tissue microarray with adjacent normal (LC 1001 2a)
Protocol: as §2, §3
(§4) The slides were then incubated with GR6A04 at 5 μg/mL in blocking solution overnight at 4° C. The slides were then washed an incubated with a polymer-based anti-mouse secondary antibody conjugated with HRP (DAKO, USA) for 30 min at room temperature, and developed with the recommended DAB chromogen substrate solution for 2 min, and counterstained with Gill's Hematoxylin solution.
(§5) The stained slides were subsequently dehydrated through immersion in 50% ethanol, 70% ethanol, 90% ethanol, 100% ethanol (2×) and Histoclear (2×), before mounting with a glass cover slip. The slides were then imaged with the Zeiss AxioScan Digital Slide Scanner.

normal tissues = assay: IHC staining on FFPE normal tissue microarray (MNO961)
Protocol: as §2, §3, §4, §5

CL75 GR clone = assay: Mab-ZAP indirect saporin conjugate cell growth inhibition; format: cell-based; settings: GR6A04 indirectly conjugated with saporin via anti-mouse antibody
Protocol: (§6) Cells were seeded into a black coated 96 well plate (Grenier Bio-one, UK) at a range of density from 1000-5000 cells per well (depending on the cell type used) and 90 μL per well. The plate was then incubated for 24 hours at 37° C. in humidified air with 5% CO2. After 24 hours, 10 μL of mAb or buffer was added to each well and the plate was again placed at 37° C. in humidified air with 5% CO2. 4 days after addition of mAb or buffer, 100 μL of CTG substrate (Promega, Wisconsin, USA) was added to each well. The plate was then left in the dark for 10 minutes, with vigorous shaking. The cell viability of the samples was then quantified using Tecan I-control (Tecan, Switzerland).

PC-9 = assay: as above; format: cell-based; settings: GR6A04 indirectly conjugated with saporin via anti-mouse antibody; PC-9 sensitive parental line
Protocol: as §6

PC-9 cells = assay: Antibody internalisation by immunofluorescence; format: cell-based; settings: 37° C.; a proportion of cells not internalised at 120 min

B1: GR6A04: mouse IgG1, κ anti-CEACAM6 monoclonal antibody, VH SEQ ID NO:1, VL SEQ ID NO:2, binds N-glycosylated CEACAM6 (antibody, V domains shown)
VH: SGPELVKPGASVKMSCKASGNTFTSYVMHWVKQKPGQGLEWIGYINPYNDGTKYNEKFKGKATLTSDKSSSTAYMELSSLTSEDSAVYYCARSTARATPYFYAMDYWGQGTSVTVSS
VL: DILMTQSPSSLAVTAGEKVTMRCKSSQSLLWSVNQNSYLSWYQLKQGQPPKLLLYGASIRESWVPDRFTGSGSGTDFTLTISNVHVEDLAVYYCQHNHGSFLPYTFGGGTKLEIK
modifications: Isolated antibody fragment
With B1 the binding ([1]; Gefitinib sensitive parental PC-9 and another GR PC-9 clone not used in immunisation) was “similarly high binding”, the “percentage positive-binding (reactivity)” value ([1]; three PC-9 Gefitinib resistant clones used for immunisation, FL-1 gated at 2% on secondary-only control) was > 50% and the “GR HCC827 clones with binding” value [2] was 2 of 6. The “breast cancer lines with reactivity” value [2] was 3 of 13, the “colorectal cancer lines with reactivity” value [2] was 1 of 2 and the “NSCLC lines with partial binding” value ([2]; A549 and Calu-3 positive) was 2 of 4. For the same molecule, the “binding after knockdown of CEACAM6 expression” value (CEACAM6) was “decrease”, the “IHC reactivity on FFPE cell line array” value (cancer cell lines) was “reactive” and the “positive staining adenocarcinoma (cores positive/total)” value (NSCLC tissue; LC 1001 2a) was 9/18. For the same molecule, the “positive staining squamous (cores positive/total)” value (NSCLC tissue; LC 1001 2a) was 4/27, the “staining of paired adjacent normal tissue” value (NSCLC tissue; LC 1001 2a) was “did not have any positive staining” and the “staining of paired adjacent normal tissue” value (NSCLC tissue; LC 1001 2a, listed as GR 6A04) was “negative staining”. The “positive stained lung adenocarcinoma cores” value (NSCLC tissue; focused NSCLC TMA) was 50%, the “positive stained squamous cell cancer cores” value (NSCLC tissue; focused NSCLC TMA) was 15% and the “colon cores weakly positive (2+)” value (normal tissues; MNO961) was 2 of 3. For the same molecule, the “normal tissue cores stained positive” value (normal tissues; MNO961) was 3, the “prostate cores weakly positive (2+)” value (normal tissues; MNO961) was 1 of 3 and the “normal tissue cores with no staining” value (normal tissues; MNO961, 35 anatomical sites) was 93 of the 96. For the same molecule, the cell growth inhibited (CL75 GR clone) was 28%, the cell growth inhibited (PC-9) was 43% and the time to internalise (PC-9 cells) was ≤ 120 min.
